± gives the standard deviation of the averaged measurements.
Assay: total protein half-life in vivo (active degradation + dilution); higher = more stable protein
[1] = E. coli NCM3722 delta-clpP delta-lon delta-hslV, growth: N-lim chemostat, doubling time 6 h
[2] = wild type E. coli NCM3722, growth: C-lim chemostat, doubling time 3 h
[3] = wild type E. coli NCM3722, growth: C-lim chemostat, doubling time 6 h
[4] = wild type E. coli NCM3722, growth: C-lim chemostat, doubling time 12 h
[5] = wild type E. coli NCM3722, growth: P-lim chemostat, doubling time 6 h
[6] = E. coli NCM3722 delta-clpP, growth: N-lim chemostat, doubling time 6 h
[7] = E. coli NCM3722 delta-hslV, growth: N-lim chemostat, doubling time 6 h
[8] = E. coli NCM3722 delta-lon, growth: N-lim chemostat, doubling time 6 h
[9] = E. coli NCM3722 delta-smpB, growth: N-lim chemostat, doubling time 6 h
[10] = wild type E. coli NCM3722, growth: N-lim chemostat, doubling time 6 h
[11] = wild type E. coli NCM3722, growth: N-lim chemostat, doubling time 12 h
[12] = wild type E. coli NCM3722, growth: P-lim chemostat, doubling time 12 h

Row | Sequence | total protein half-life in vivo [1] | total protein half-life in vivo [2] | total protein half-life in vivo [3] | total protein half-life in vivo [4] | total protein half-life in vivo [5] | total protein half-life in vivo [6] | total protein half-life in vivo [7] | total protein half-life in vivo [8] | total protein half-life in vivo [9] | total protein half-life in vivo [10] | total protein half-life in vivo [11] | total protein half-life in vivo [12]
1 | MTTKNMNTPPGSTQENEIDLLRLVGELWDHRKFIISVTALFTLIAVAYSLLSTPIYQADTLVQVEQKQGNAILSGLSDMIPNSSPESAPEIQLLQSRMILGKTIAELNLRDIVEQKYFPIVGRGWARLTKEKPGELAISWMHIPQLNGQDQQLTLTVGENGHYTLEGEEFTVNGMVGQRLEKDGVALTIADIKAKPGTQFVLSQRTELEAINALQETFTVSERSKESGMLELTMTGDDPQLITRILNSIANNYLQQNIARQAAQDSQSLEFLQRQLPEVRSELDQAEEKLNVYRQQRDSVDLNLEAKAVLEQIVNVDNQLNELTFREAEISQLYKKDHPTYRALLEKRQTLEQERKRLNKRVSAMPSTQQEVLRLSRDVEAGRAVYLQLLNRQQELSISKSSAIGNVRIIDPAVTQPQPVKPKKALNVVLGFILGLFISVGAVLARAMLRRGVEAPEQLEEHGISVYATIPMSEWLDKRTRLRKKNLFSNQQRHRTKNIPFLAVDNPADSAVEAVRALRTSLHFAMMETENNILMITGATPDSGKTFVSSTLAAVIAQSDQKVLFIDADLRRGYSHNLFTVSNEHGLSEYLAGKDELNKVIQHFGKGGFDVITRGQVPPNPSELLMRDRMRQLLEWANDHYDLVIVDTPPMLAVSDAAVVGRSVGTSLLVARFGLNTAKEVSLSMQRLEQAGVNIKGAILNGVIKRASTAYSYGYNYYGYSYSEKE | 4.74 ± 1.7 h | 1.74 ± 0.34 h | 3.3 h | 7.46 h | 1.53 ± 0.24 h |  |  |  |  |  |  | 
2 | MSQLTHINAAGEAHMVDVSAKAETVREARAEAFVTMRSETLAMIIDGRHHKGDVFATARIAGIQAAKRTWDLIPLCHPLMLSKVEVNLQAEPEHNRVRIETLCRLTGKTGVEMEALTAASVAALTIYDMCKAVQKDMVIGPVRLLAKSGGKSGDFKVEADD [P0A738] | 5.289 ± 0.028 h | 2.9 ± 0.24 h | 4.96 ± 0.099 h | 8.28 ± 0.49 h | 4.92 ± 0.059 h | 5.03 ± 0.15 h | 4.56 ± 0.47 h | 4.41 ± 0.087 h | 3.95 ± 0.17 h | 4.1 ± 0.28 h | 5.91 ± 0.19 h | 9.42 ± 0.47 h
3 | MEFAFYICGLIAILATLRVITHTNPVHALLYLIISLLAISGVFFSLGAYFAGALEIIVYAGAIMVLFVFVVMMLNLGGSEIEQERQWLKPQVWIGPAILSAIMLVVIVYAILGVNDQGIDGTPISAKAVGITLFGPYVLAVELASMLLLAGLVVAFHVGREERAGEVLSNRKDDSAKRKTEEHA [P0AFE0] |  |  | 6.7 h |  | 6.02 h |  | 4.21 h |  | 6.02 h | 6.07 h | 11.5 h | 13.8 ± 2.9 h
4 | MKKNQFLKESDVTAESVFFMKRRQVLKALGISATALSLPHAAHADLLSWFKGNDRPPAPAGKALEFSKPAAWQNNLPLTPADKVSGYNNFYEFGLDKADPAANAGSLKTDPWTLKISGEVAKPLTLDHDDLTRRFPLEERIYRMRCVEAWSMVVPWIGFPLHKLLALAEPTSNAKYVAFETIYAPEQMPGQQDRFIGGGLKYPYVEGLRLDEAMHPLTLMTVGVYGKALPPQNGAPVRLIVPWKYGFKGIKSIVSIKLTRERPPTTWNLAAPDEYGFYANVNPYVDHPRWSQATERFIGSGGILDVQRQPTLLFNGYAAQVASLYRGLDLRENF | 4.835 ± 0.0049 h | 2.98 ± 0.034 h | 5.58 ± 0.24 h | 8.4 ± 0.38 h | 5.91 ± 0.19 h | 5.46 ± 0.24 h | 5.75 ± 0.17 h | 5.98 ± 0.35 h | 5.33 ± 0.3 h | 5.79 ± 0.18 h | 11.9 ± 0.43 h | 11.9 ± 0.57 h
5 | MSDQLQMTDGMHIIVEALKQNNIDTIYGVVGIPVTDMARHAQAEGIRYIGFRHEQSAGYAAAASGFLTQKPGICLTVSAPGFLNGLTALANATVNGFPMIMISGSSDRAIVDLQQGDYEELDQMNAAKPYAKAAFRVNQPQDLGIALARAIRVSVSGRPGGVYLDLPANVLAATMEKDEALTTIVKVENPSPALLPCPKSVTSAISLLAKAERPLIILGKGAAYSQADEQLREFIESAQIPFLPMSMAKGILEDTHPLSAAAARSFALANADVVMLVGARLNWLLAHGKKGWAADTQFIQLDIEPQEIDSNRPIAVPVVGDIASSMQGMLAELKQNTFTTPLVWRDILNIHKQQNAQKMHEKLSTDTQPLNYFNALSAVRDVLRENQDIYLVNEGANTLDNARNIIDMYKPRRRLDCGTWGVMGIGMGYAIGASVTSGSPVVAIEGDSAFGFSGMEIETICRYNLPVTIVIFNNGGIYRGDGVDLSGAGAPSPTDLLHHARYDKLMDAFRGVGYNVTTTDELRHALTTGIQSRKPTIINVVIDPAAGTESGHITKLNPKQVAGN [P0AFI0] | 5.61 ± 0.33 h | > 4 h | 3.11 h |  | 4.43 h |  |  |  | 3.08 h |  |  | 9.26 ± 0.98 h
6 | MRMNMSDFATFFAVARNQSFRAAGDELGLSSSAISHSIKTLEQRLKIRLFNRTTRSVSLTEAGSNLYERLRPAFDEIQIMLDEMNDFRLTPTGTLKINAARVAARIFLMSLLVGFTREYPDIKVELTTDDSLVDIVQQGFDAGVRLSCIVEKDMISVAIGPPVKLCVAATPEYFARYGKPRHPHDLLNHQCVVFRYPSGKPFHWQFAKELEIAVAGNIILDDVDAELEAVLMGAGIGYLLYEQIKEYLDTGRLECVLEDWSTERPGFQIYYPNRQYMSCGLRAFLDYVKTGQICQSQRHRPQ | 5.54 ± 0.06 h |  |  |  |  |  |  |  |  |  |  | 
7 | MKGRLLDAVPLSSLTGVGAALSNKLAKINLHTVQDLLLHLPLRYEDRTHLYPIGELLPGVYATVEGEVLNCNISFGGRRMMTCQISDGSGILTMRFFNFSAAMKNSLAAGRRVLAYGEAKRGKYGAEMIHPEYRVQGDLSTPELQETLTPVYPTTEGVKQATLRKLTDQALDLLDTCAIEELLPPELSQGMMTLPEALRTLHRPPPTLQLSDLETGQHPAQRRLILEELLAHNLSMLALRAGAQRFHAQPLSANDTLKNKLLAALPFKPTGAQARVVAEIERDMALDVPMMRLVQGDVGSGKTLVAALAALRAIAHGKQVALMAPTELLAEQHANNFRNWFAPLGIEVGWLAGKQKGKARLAQQEAIASGQVQMIVGTHAIFQEQVQFNGLALVIIDEQHRFGVHQRLALWEKGQQQGFHPHQLIMTATPIPRTLAMTAYADLDTSVIDELPPGRTPVTTVAIPDTRRTDIIDRVHHACITEGRQAYWVCTLIEESELLEAQAAEATWEELKLALPELNVGLVHGRMKPAEKQAVMASFKQGELHLLVATTVIEVGVDVPNASLMIIENPERLGLAQLHQLRGRVGRGAVASHCVLLYKTPLSKTAQIRLQVLRDSNDGFVIAQKDLEIRGPGELLGTRQTGNAEFKVADLLRDQAMIPEVQRLARHIHERYPQQAKALIERWMPETERYSNA | 5.83 ± 0.22 h |  | 6.17 ± 0.47 h | 10.5 ± 0.46 h | 6.25 ± 0.072 h | 5.05 ± 0.14 h | 5.74 ± 0.61 h | 5.32 ± 0.16 h | 5.01 ± 0.36 h | 4.91 ± 0.11 h | 8.73 ± 0.86 h | 11.3 ± 0.53 h

From the supplement of paper PMC11246515
